1 protein from US20220227832 can be followed below.

The target in the series is Muc16 CAR 53B6 with a V5 tag attached to its N-terminus via matriptase cleavable linker TPS6 45aa.
Sequence of Muc16 CAR 53B6 with a V5 tag attached to its N-terminus via matriptase cleavable linker TPS6 45aa (chain, as listed by the source): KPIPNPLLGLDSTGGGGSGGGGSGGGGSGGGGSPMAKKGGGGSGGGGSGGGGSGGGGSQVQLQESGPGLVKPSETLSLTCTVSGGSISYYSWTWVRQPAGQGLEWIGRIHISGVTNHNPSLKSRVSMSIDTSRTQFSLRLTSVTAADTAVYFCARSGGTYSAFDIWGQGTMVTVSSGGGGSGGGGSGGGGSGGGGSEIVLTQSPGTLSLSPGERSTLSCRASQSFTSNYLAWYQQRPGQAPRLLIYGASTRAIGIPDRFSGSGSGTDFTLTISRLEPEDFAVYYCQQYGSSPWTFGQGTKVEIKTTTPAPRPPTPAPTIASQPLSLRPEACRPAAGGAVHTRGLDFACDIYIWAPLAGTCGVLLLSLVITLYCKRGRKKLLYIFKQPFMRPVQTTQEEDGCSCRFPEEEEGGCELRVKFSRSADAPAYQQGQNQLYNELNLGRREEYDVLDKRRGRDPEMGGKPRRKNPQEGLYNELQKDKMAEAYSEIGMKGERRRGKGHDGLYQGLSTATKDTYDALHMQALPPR

B1: endogenous matriptase on OVCAR3, MDA-MB-231 and NCI-H292 cells (protein)
chain: MGSDRARKGGGGPKDFGAGLKYNSRHEKVNGLEEGVEFLPVNNVKKVEKHGPGRWVVLAAVLIGLLLVLLGIGFLVWHLQYRDVRVQKVFNGYMRITNENFVDAYENSNSTEFVSLASKVKDALKLLYSGVPFLGPYHKESAVTAFSEGSVIAYYWSEFSIPQHLVEEAERVMAEERVVMLPPRARSLKSFVVTSVVAFPTDSKTVQRTQDNSCSFGLHARGVELMRFTTPGFPDSPYPAHARCQWALRGDADSVLSLTFRSFDLASCDERGSDLVTVYNTLSPMEPHALVQLCGTYPPSYNLTFHSSQNVLLITLITNTERRHPGFEATFFQLPRMSSCGGRLRKAQGTFNSPYYPGHYPPNIDCTWNIEVPNNQHVKVRFKFFYLLEPGVPAGTCPKDYVEINGEKYCGERSQFVVTSNSNKITVRFHSDQSYTDTGFLAEYLSYDSSDPCPGQFTCRTGRCIRKELRCDGWADCTDHSDELNCSCDAGHQFTCKNKFCKPLFWVCDSVNDCGDNSDEQGCSCPAQTFRCSNGKCLSKSQQCNGKDDCGDGSDEASCPKVNVVTCTKHTYRCLNGLCLSKGNPECDGKEDCSDGSDEKDCDCGLRSFTRQARVVGGTDADEGEWPWQVSLHALGQGHICGASLISPNWLVSAAHCYIDDRGFRYSDPTQWTAFLGLHDQSQRSAPGVQERRLKRIISHPFFNDFTFDYDIALLELEKPAEYSSMVRPICLPDASHVFPAGKAIWVTGWGHTQYGGTGALILQKGEIRVINQTTCENLLPQQITPRMMCVGFLSGGVDSCQGDSGGPLSSVEADGRIFQAGVVSWGDGCAQRNKPGVYTRLPLFRDWIKENTGV
With B1, the “removal of V5 tag (linker cleavage, flow cytometry)” value was “the endogenous matriptase showed limited activity”.
